Drawing on paper PMC7840056, this text covers response for eight substances.

What all share (experiment): bacterial two-hybrid (BACTH), ß-galactosidase activity
The target of assay [1] is SlyD wild type fused to the T25 fragment of Bordetella pertussis adenylate cyclase (pNKT25) (UniProt O25748). Conditions: E. coli strain BTH101; each measurement was performed three times; parent: est. 2500; read off a plot.
The target of assay [2] is NiuD permease subunit of the NiuBDE nickel ABC transporter, full length, fused to the T18 fragment (pUT18). Conditions: E. coli strain BTH101; each measurement was performed three times; parent: est. 2400; read off a plot.
The target of assay [3] is NiuDΔ7, C-terminally truncated NiuD fused to the T18 fragment. Conditions: E. coli strain BTH101; each measurement was performed three times; parent: est. 2500; read off a plot.

Consider “NiuDΔ7, C-terminally truncated NiuD fused to the T18 fragment W209G”, for which the response in assay [1] came out at 720 Miller Units. Same read-out and setting: the same measure for “NiuDΔ7, C-terminally truncated NiuD fused to the T18 fragment P203V”: 1500 Miller Units.

Take “NiuDΔ7, C-terminally truncated NiuD fused to the T18 fragment R208Q”: the response in assay [1] came out at 95 Miller Units.

For the substance “NiuDΔ7, C-terminally truncated NiuD fused to the T18 fragment R208G; W209G; R210G”, the response in assay [1] came out at 30 Miller Units. The same measure, in the same setting: the same measure for “NiuDΔ7, C-terminally truncated NiuD fused to the T18 fragment R208S”: 1000 Miller Units; for “NiuDΔ7, C-terminally truncated NiuD fused to the T18 fragment R210G”: 120 Miller Units. For the substance “SlyD wild type fused to the T25 fragment of Bordetella pertussis adenylate cyclase (pNKT25) (from UniProt O25748) I47S; Y73A; F137Y”, the response in assay [2] was found to be 1800 Miller Units; in assay [3], 2100 Miller Units. Regarding “NiuDΔ7, C-terminally truncated NiuD fused to the T18 fragment W209F”, in assay [1], the response worked out at 1200 Miller Units.
